From US8709811B2, “Materials and methods for synthesis of a flavor and aroma volatile in plants” (University of Florida Research Foundation, Inc., priority 2003, dated 2014)
“Also recorded” adds a separate entry of the source.

B1: petunia homolog of the tomato phenylethanol dehydrogenase: petunia 2-phenylethanol dehydrogenase, SEQ ID NO: 11, encoded by SEQ ID NO: 10 (protein, listed as Lycopersicon esculentum)
chain: MSSVAATKTVCVTGASGYIASWLVNFLLQRGYTVKASVRDPNDPKKTQHLISLGGAKERLHLFKANLLEEGSFDAVVDGCEGVFHTASPFYYSVTDPQAELLDPAVKGTLNLLGSCAKAPSVKRVVLTSSIAAVAYSGEPRTPEVVVDESWWTSPDYCREKQLWYVLSKTLAEDAAWKFVKEKGIDMVAINPAMVIGPLLQPTLNTSSAAVLNLVNGAETYPNATFGWVNVKDVANAHILAFENPSANGRYLMVERVAHYSDILKILRELYPTMRLPEKCADDNPLMQNYQVSKERAKSLGVEFTPLEESIKETVESLKEKKFFGGSSAM
B2: cLEC73K23: tomato phenylalanine decarboxylase cLEC73K23, SEQ ID NO: 7, encoded by SEQ ID NO: 6 (protein, listed as Lycopersicon esculentum)
chain: MGSLSLEMDFEPSPMTPRSLAAMTPRSLARRRLFPNVDNKKQKMAQPGAGPRKNLELEVMEPALKNDGPSLDTILVNYLDTLTQRVNYHLGYPVNICYDHYATLAPLLQFHLNNCGDPFLQNTVDFHSKDFEVAVLNWFAKLWEIEKDQYWGYVTNGGTEGNLHGILLGRELLPEGILYASKDSHYSVFKAARMYRMDSETINTSVNGEMDYSDLRAKLLQNKDKPAIINVTIGTTFKGAIDDLDVILEILKECGYSQDRFYIHCDAALCGLMTPFINNMISFKKPIGSVTISGHKFLGCPMPCGVQITRKSYINNLSTNVEYIASVDATISGSRNGLTPIFLWYSLSAKGQVGLQKDVKRCLDNAKYLKDRLQQAGISVMLNELSIIVVLERPRDHEFVRRWQLSCVKDMAHVIVMPGITREMLDNFMSELVQQRKVWYQNGKTDPPCVGEDIGAQNCACSYHKIDYICP
B3: cLEC75E21: tomato phenylalanine decarboxylase cLEC75E21, SEQ ID NO: 5, encoded by SEQ ID NO: 4 (protein, listed as Lycopersicon esculentum)
chain: MGSLSFEKDFEPSAITPRGLAPPGLIVNGDFGEMMRLKVSSTPTTPRKNLNLSVTEPGKNDGPSLDCTLMNYIDTLTQRINYHIGYPVNICYEHYANLAPLLQFHLNNCGDPFLQNTVDFHSKDFEVAVLNWFADLWEIERDQYWGYVTNGGTEGNLHGILVGRELFPDGILYASKDSHYSVAKAAMMYRMDFENINASINGEIDYSDLKVKLLQNKGKPAIINVTIGTTFKGAVDDLDVILQILEECGYTRDQFYIHCDAALNGLIIPFIKNMITFKKPIGSVTISGHKFLGCPMPCGVQITRKSYINNLSRRVEYIASVDATISGSRNGLTPIFLWYSISAKGQIGFQKDVKRCFDNAKYLKDRLQQAGISVMLNELSIIVVLERPRDHEFVRRWQLSCVRDMAHVIVMPGITRETLDGFINDLLQQRKKWYQDGRISPPCVANDIGAQNCACSYHKIDYIIA

Experiments:
[1] = In vitro phenylethanol dehydrogenase activity of E. coli expressed petunia homolog; assay type: biochemical; conditions: E. coli expressed protein
From the text: FIGS. 14A-14B show the nucleotide (SEQ ID NO: 10) and amino acid sequence (SEQ ID NO: 11) of a petunia homolog of the tomato phenylethanol dehydrogenase.

phenylalanine = assay: Phenylalanine decarboxylase expression in E. coli: phenethylamine production in media containing phenylalanine, GC; assay type: cell-based; conditions: grown in the presence of phenylalanine, confirmed by GC-MS
From the text: The full-length aromatic amino acid decarboxylase cDNAs were cloned by sequencing putative clones from the TIGR database. Following sequence analysis the full-length coding sequence was obtained by PCR, and cloned into vector pENTR/D-TOPO. The coding region was then cloned into vector pDEST15 containing a GST tag (Invitrogen) by recombination, and transformed into E. coli strain […] (Invitrogen) for inducible protein expression. Production of the recombinant protein was confirmed by protein blotting with anti-GST antibodies. Enzyme activity was determined by growing E. coli strains expressing the aromatic amino acid decarboxylases in media containing 19.4 mM phenylalanine. Volatile compounds were extracted from the cultures using an equal volume of hexanes. Extracts were concentrated and analyzed by gas chromatography on an Agilent DB-5 column on an Agilent 6890N gas chromatograph. Identification of phenethylamine was confirmed by GC-mass spectrometry as described by Schmelz et al. (2001).
The coding regions of the full-length aromatic amino acid decarboxylases were cloned in vector pDEST15 with a GST tag and transformed into E. coli BL21-SI cells for inducible expression. The production of recombinant proteins in E. coli was confirmed by Western blotting with an anti-GST antibody. […] Volatile compounds were extracted from these cultures and analyzed by gas chromatography. […]

Molecule	Phenylethanol dehydrogenase activity in vitro [1]	Production of phenethylamine by E. coli cultures expressing the decarboxylase (phenylalanine)
B1	exhibits phenylethanol dehydrogenase activity	
B2		produced a compound with the same retention time as phenethylamine; also recorded: produce phenethylamine
B3		produced a compound with the same retention time as phenethylamine; also recorded: produce phenethylamine
